In PMC11348035 (Proceedings of the National Academy of Sciences of the …, 2024):
Values belong to the molecule of their own block, whether it stands above or below them.

Experiments:
UAF1 = UAF1 (UniProt Q8TAF3); assay: FLAG co-immunoprecipitation, western blot; conditions: reference: wild type; sites S306
[1] = molecular target: UAF1 (USP1-associated factor 1), purified recombinant (UniProt Q8TAF3 1-677); assay: pull-down
UAF1 (USP1-associated factor 1), purified recombinant, sequence (Q8TAF3 whole entry): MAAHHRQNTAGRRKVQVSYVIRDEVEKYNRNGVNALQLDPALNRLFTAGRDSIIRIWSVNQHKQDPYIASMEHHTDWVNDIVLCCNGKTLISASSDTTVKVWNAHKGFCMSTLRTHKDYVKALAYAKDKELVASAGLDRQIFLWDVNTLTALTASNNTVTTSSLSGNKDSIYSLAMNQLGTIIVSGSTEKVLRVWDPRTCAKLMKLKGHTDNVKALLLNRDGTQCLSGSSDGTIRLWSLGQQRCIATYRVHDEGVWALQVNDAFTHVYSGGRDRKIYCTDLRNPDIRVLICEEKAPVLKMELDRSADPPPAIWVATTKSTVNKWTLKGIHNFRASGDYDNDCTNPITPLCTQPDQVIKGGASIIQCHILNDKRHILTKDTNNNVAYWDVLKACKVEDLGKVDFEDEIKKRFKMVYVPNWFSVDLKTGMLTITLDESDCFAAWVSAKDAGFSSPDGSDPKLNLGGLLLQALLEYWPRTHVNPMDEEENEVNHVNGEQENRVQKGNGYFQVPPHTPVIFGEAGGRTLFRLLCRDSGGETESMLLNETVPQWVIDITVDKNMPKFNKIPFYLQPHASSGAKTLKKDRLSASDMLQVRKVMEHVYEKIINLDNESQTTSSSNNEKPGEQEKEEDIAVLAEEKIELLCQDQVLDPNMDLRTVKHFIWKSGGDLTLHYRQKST

- binding against the reference (UAF1): weaker
Molecule: ATAD5 (from UniProt Q96QE3) S306A

- binding result [1]: binds
B1: ATAD5 (1 to 500, S306E), the 'wild-type' ATAD5 (1 to 500) of the in vitro binding studies (domain or fragment, human, UniProt Q96QE3 1-500, looked up)
chain: MVGVLAMAAAAAPPPVKDCEIEPCKKRKKDDDTSTCKTITKYLSPLGKTRDRVFAPPKPSNILDYFRKTSPTNEKTQLGKECKIKSPESVPVDSNKDCTTPLEMFSNVEFKKKRKRVNLSHQLNNIKTENEAPIEISSDDSKEDYSLNNDFVESSTSVLRYKKQVEVLAENIQDTKSQPNTMTSLQNSKKVNPKQGTTKNDFKKLRKRKCRDVVDLSESLPLAEELNLLKKDGKDTKQMENTTSHANSRDNVTEAAQLNDSIITVSYEEFLKSHKENKVEEIPDSTMSICVPSETVDEIVKSGYIEESENSEISQQVRFKTVTVLAQVHPIPPKKTGKIPRIFLKQKQFEMENSLSDPENEQTVQKRKSNVVIQEEELELAVLEAGSSEAVKPKCTLEERQQFMKAFRQPASDALKNGVKKSSDKQKDLNEKCLYEVGRDDNSKKIMENSGIQMVSKNGNLQLHTDKGSFLKEKNKKLKKKNKKTLDTGAIPGKNREGNT
